# In the supplement of paper PMC7125110:
# ± gives the standard error. This sample holds only a part of the variants without activity.
# B1: glmS ribozyme (parent)
# chain: AUAAAAGCGCCAGAACUACAGAAAUGUAGUUGACGAGGAGGAGGUUUAUCGAAUUUUCGGCGGAUGCCUCCAAA
# Key:
# Settings in all cases: with glucosamine-6-phosphate
# glucosamine-6-phosphate [1] = variants of: B1; experiment: self-cleavage kobs at 160 uM GlcN6P; higher = faster cleavage; RNA array
# In short: (§1)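 Over ~14 h at 37 °C, tiles were imaged as glucosamine-6-phosphate (40 μM to 10 mM) in HEPES/KCl/Mg(OAc)2 buffer flowed across sequenced MiSeq chips. The chips carried barcoded ribozyme variants transcribed in situ by E. coli RNA polymerase and tracked with a hybridised Cy3 probe. After normalisation to baseline and to non-cleaving reference variants, one- or two-exponential decay fits of per-tile medians gave kobs. kcat and KM followed from weighted Michaelis–Menten fits across concentrations.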
# glucosamine-6-phosphate [2] = variants of: B1; experiment: self-cleavage kobs at 640 uM GlcN6P; higher = faster cleavage; RNA array
# In short: as §1
# glucosamine-6-phosphate [3] = variants of: B1; experiment: self-cleavage kobs at 2500 uM GlcN6P; higher = faster cleavage; RNA array
# In short: as §1
# glucosamine-6-phosphate [4] = variants of: B1; experiment: self-cleavage kobs at 10000 uM GlcN6P; higher = faster cleavage; RNA array
# In short: as §1
Variant,self-cleavage kobs at 160 uM GlcN6P (glucosamine-6-phosphate [1]) [s⁻¹],self-cleavage kobs at 640 uM GlcN6P (glucosamine-6-phosphate [2]) [s⁻¹],self-cleavage kobs at 2500 uM GlcN6P (glucosamine-6-phosphate [3]) [s⁻¹],self-cleavage kobs at 10000 uM GlcN6P (glucosamine-6-phosphate [4]) [s⁻¹]
C16A G41A U56G,< 1e-05,< 1e-05,–,–
G13C A52G C70G,0.000297 ± 0.00012,0.000164 ± 5.2e-05,7.21e-05 ± 3e-05,–
A15U A52U C58A C70U,< 1e-05,–,–,–
A15C U31C A39U A42C,< 1e-05,–,–,–
A14U G43U U46A,< 1e-05,< 1e-05,< 1e-05,–
G29U G32C A36G,< 1e-05,< 1e-05,–,–
U30G G37U,< 1e-05,< 1e-05,–,< 1e-05
A14U U30C G43C G66C,< 1e-05,–,–,–
A12U C58A G60U,< 1e-05,< 1e-05,–,–
A15C G35U C70U,< 1e-05,–,–,–
A14G U56A C67A,0.00127 ± 0.00033,0.00567 ± 0.0018,0.00817 ± 0.0024,–
A12G G40U G62C,< 1e-05,< 1e-05,< 1e-05,–
C11U A42G U54A,3.87e-05 ± 1.6e-05,0.000886 ± 0.00027,–,–
C16G G29C A33U A48C,< 1e-05,< 1e-05,–,–
G13U G29A A52C,< 1e-05,< 1e-05,< 1e-05,–
A12G A42U G59U G63C C71U,< 1e-05,< 1e-05,–,–
A15G G40U C70A,4.48e-05 ± 1.3e-05,0.000328 ± 8e-05,0.000773 ± 0.00016,0.000531 ± 0.00014
C16U A33G C34A A39G,< 1e-05,< 1e-05,–,–
C16A G60C C67G,< 1e-05,–,< 1e-05,–
A12G G13A U45C U49C C50A A52C A53U G66U,< 1e-05,–,< 1e-05,–
G29C U30C G37C C70G,9.14e-05 ± 2.9e-05,0.000358 ± 0.00011,0.000111 ± 3.5e-05,–
A12U G32A G37A U45A,< 1e-05,–,–,–

Variant,self-cleavage kobs at 160 uM GlcN6P (glucosamine-6-phosphate [1]) [s⁻¹],self-cleavage kobs at 640 uM GlcN6P (glucosamine-6-phosphate [2]) [s⁻¹],self-cleavage kobs at 2500 uM GlcN6P (glucosamine-6-phosphate [3]) [s⁻¹],self-cleavage kobs at 10000 uM GlcN6P (glucosamine-6-phosphate [4]) [s⁻¹]
G13U U31A C34A A48C G62U,< 1e-05,–,–,–
A14C U47G C70A,6.05e-05 ± 2.8e-05,0.000114 ± 3.4e-05,6.72e-05 ± 1.5e-05,–
A15U G38U G59U,< 1e-05,–,–,–
A12U G41C A52U G59A G60U,< 1e-05,–,< 1e-05,–
G29A C50A A53C,< 1e-05,–,–,–
U30C G43C C68G,7.51e-05 ± 2.2e-05,–,–,–
G13A A39G C68A,< 1e-05,–,–,–
A14U G29A G63U,< 1e-05,–,< 1e-05,–
A14C C50G C70G,0.000127 ± 3.4e-05,0.000437 ± 0.00014,0.000126 ± 3.1e-05,7.94e-05 ± 1.8e-05
U30C U56C A64U,< 1e-05,< 1e-05,–,–
A14C G35A,< 1e-05,< 1e-05,< 1e-05,< 1e-05
A14U G43U G51C,< 1e-05,–,–,–
C11U G32C A42G G59U,< 1e-05,–,< 1e-05,–
A12U G29A A53G G62A,< 1e-05,< 1e-05,< 1e-05,–
A12U A14C C71U,0.000143 ± 4.4e-05,–,0.00169 ± 0.00033,–
U31A G38A A42C,< 1e-05,< 1e-05,–,–
U31A C50G,0.000119 ± 2.4e-05,0.000349 ± 0.00014,0.000577 ± 0.00022,–
A14U U45A U46A,0.00056 ± 0.00015,–,0.00178 ± 0.00057,–
A28G U30G C67U C71U,4.89e-05 ± 2e-05,7.62e-05 ± 1.3e-05,0.000204 ± 5.3e-05,–
G29A G32A G62U,< 1e-05,–,–,–
A12G G29A G41C,< 1e-05,< 1e-05,< 1e-05,< 1e-05
A12G G35U A42C A48C U57C,< 1e-05,–,–,–

Variant,self-cleavage kobs at 160 uM GlcN6P (glucosamine-6-phosphate [1]) [s⁻¹],self-cleavage kobs at 640 uM GlcN6P (glucosamine-6-phosphate [2]) [s⁻¹],self-cleavage kobs at 2500 uM GlcN6P (glucosamine-6-phosphate [3]) [s⁻¹],self-cleavage kobs at 10000 uM GlcN6P (glucosamine-6-phosphate [4]) [s⁻¹]
A14U U57C G66U,< 1e-05,–,–,–
A14G C58G U69A,3.98e-05 ± 2e-05,8.05e-05 ± 3.6e-05,3.74e-05 ± 1.9e-05,–
A14C C50G,5.43e-05 ± 1.5e-05,0.000625 ± 0.00028,4.32e-05 ± 1.3e-05,–
G13U G21U G37C,< 1e-05,–,–,–
A12G G38U A52U A64U,< 1e-05,< 1e-05,< 1e-05,–
G29C A36U G43C,< 1e-05,< 1e-05,–,–
G13U G32U C34A G44A,< 1e-05,–,< 1e-05,–
C11U G29U G40A,< 1e-05,< 1e-05,–,5.39e-05 ± 1.7e-05
C16U G41C G43C A48U U57C,< 1e-05,–,< 1e-05,–
G29C U31C A33C A36C A53U,< 1e-05,–,< 1e-05,–
G29C G43C C70G,< 1e-05,< 1e-05,–,–
A14G G35U G66U,< 1e-05,< 1e-05,–,–
G13A A42U,< 1e-05,< 1e-05,–,–
U31A C34A U55A C67G,< 1e-05,< 1e-05,< 1e-05,–
C11U U46G C50G,5.55e-05 ± 1.9e-05,6.4e-05 ± 1.8e-05,–,–
C16U A39C A48U,< 1e-05,–,–,–
G29C U46G U47A C70G,5.51e-05 ± 2.1e-05,0.00011 ± 3.9e-05,6.12e-05 ± 2.5e-05,–
A12U A15G A36U,< 1e-05,–,–,–
A14C G32U A52C,< 1e-05,< 1e-05,< 1e-05,–
G13A G35A G41U C68U,< 1e-05,< 1e-05,< 1e-05,–
A12G C34A C50A G60C,< 1e-05,–,< 1e-05,–
A15C C34A,< 1e-05,< 1e-05,< 1e-05,< 1e-05

Variant,self-cleavage kobs at 160 uM GlcN6P (glucosamine-6-phosphate [1]) [s⁻¹],self-cleavage kobs at 640 uM GlcN6P (glucosamine-6-phosphate [2]) [s⁻¹],self-cleavage kobs at 2500 uM GlcN6P (glucosamine-6-phosphate [3]) [s⁻¹],self-cleavage kobs at 10000 uM GlcN6P (glucosamine-6-phosphate [4]) [s⁻¹]
G29A G63C C70G,7.77e-05 ± 3e-05,0.000155 ± 4.1e-05,7.4e-05 ± 2.1e-05,–
G29A U31C C34U,< 1e-05,< 1e-05,< 1e-05,–
A14C U30G G41C A53G,< 1e-05,–,< 1e-05,–
G26U G29A U54A C70U C71U,0.000121 ± 3.5e-05,–,5.37e-05 ± 2.3e-05,–
U30C A36G C67A,< 1e-05,–,< 1e-05,–
C16A G37C G59C,< 1e-05,< 1e-05,–,–
A12U U30C,0.000652 ± 0.00019,0.00125 ± 0.00032,0.0109 ± 0.0027,–
C16U G32A G51U,< 1e-05,–,–,–
C16A G29C C58U,< 1e-05,–,–,–
U30A U54C C71U,0.000251 ± 5.9e-05,0.00109 ± 0.00025,0.00391 ± 0.0014,–
A14U A36C A64U,< 1e-05,< 1e-05,–,< 1e-05
G13A A33C,< 1e-05,< 1e-05,–,< 1e-05
A12G G35C,< 1e-05,< 1e-05,–,< 1e-05
A14C A36C A52U,< 1e-05,< 1e-05,–,< 1e-05
C11G U31G G44A U65C,< 1e-05,< 1e-05,< 1e-05,–
A12C U65G,0.000115 ± 2.1e-05,0.000543 ± 8.2e-05,0.00157 ± 0.00024,–
A15G U47G C68G,0.000236 ± 8.5e-05,–,3e-05 ± 1.3e-05,–
A15U G40U A48C,< 1e-05,< 1e-05,–,–
G29U G44C,< 1e-05,–,–,–
G13C C58G,< 1e-05,–,–,–
A14C U55G C67U,0.00016 ± 4.2e-05,0.000309 ± 9.8e-05,0.000399 ± 0.00015,–
U30A G35C,< 1e-05,< 1e-05,< 1e-05,< 1e-05

Variant,self-cleavage kobs at 160 uM GlcN6P (glucosamine-6-phosphate [1]) [s⁻¹],self-cleavage kobs at 640 uM GlcN6P (glucosamine-6-phosphate [2]) [s⁻¹],self-cleavage kobs at 2500 uM GlcN6P (glucosamine-6-phosphate [3]) [s⁻¹],self-cleavage kobs at 10000 uM GlcN6P (glucosamine-6-phosphate [4]) [s⁻¹]
A12U C34U A36U U55G,< 1e-05,< 1e-05,–,< 1e-05
G13U G41U C61G C71G,< 1e-05,< 1e-05,< 1e-05,–
C16G A36U,< 1e-05,< 1e-05,< 1e-05,–
A12G A52U G66U,< 1e-05,< 1e-05,–,–
A14G U56G U57C,3.78e-05 ± 1.6e-05,5.18e-05 ± 1.5e-05,0.000269 ± 8.2e-05,–
A12G G40A A42C,< 1e-05,–,< 1e-05,–
G29U G37C A42C U46A,< 1e-05,< 1e-05,–,–
C16U G40C C50A C67G,< 1e-05,< 1e-05,–,–
G29A G40C U55A U56G C67U,< 1e-05,< 1e-05,< 1e-05,–
U30C G32U C34G C50G,7.22e-05 ± 2.9e-05,8.64e-05 ± 3.3e-05,9.31e-05 ± 2.4e-05,–
G13U G29A G66C,< 1e-05,–,–,–
A12U U56G G66C,0.000132 ± 3.1e-05,0.000374 ± 9e-05,0.000708 ± 0.00017,–
A15U A33G U47G U54G C67U C71A,0.000235 ± 8.9e-05,0.000303 ± 8.2e-05,–,–
U31A A64U,< 1e-05,–,–,4.44e-05 ± 1.1e-05
G13U C34G,< 1e-05,< 1e-05,< 1e-05,< 1e-05
U30A A39G A48G C61U,< 1e-05,–,< 1e-05,–
A15C C61U A64U,< 1e-05,–,–,–
A14C A42C C70G,< 1e-05,–,–,–
C11U G41C A52U,< 1e-05,< 1e-05,< 1e-05,–
U30G U47G,0.000169 ± 4.9e-05,0.00043 ± 0.00012,0.00098 ± 0.0002,–
